For 144 substances, amyloid nucleation score results are on record in the supplement of paper PMC12042874.

± gives the uncertainty stated by the source.

The data set can be described thus: amyloid nucleation score (Sup35N fusion, yeast selection) (log enrichment); library NNK2; higher = more nucleation; inactive = no reads after selection. The method in brief: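 Yeast lacking psi expressed peptides of 20 random codons fused to Sup35N, received 100 μM copper sulfate for 24 hours, and were then grown for 7 days at 30°C on medium lacking adenine and uracil. Illumina sequencing of input and output plasmid inserts provided the reads. Nucleation scores are DiMSum log enrichments of output over input, centred on the mode of non-aggregating sequences. Any sequence with under 100 input reads was excluded.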

DGPWYYTVRAEIQPM gave an amyloid nucleation score of 3.78 ± 0.079. In the case of ACAMFSKRSHSITSVVMGYG, the amyloid nucleation score stood at 0.29 ± 0.48.

Regarding YSSNMASALSYICDPMIFNF, the amyloid nucleation score was -0.703 ± 0.56. With FYKTLCKLGWAPWS the figure was -0.744 ± 0.32. For DVKDDKLFNCLDVVMWVGNL, the amyloid nucleation score was -0.058 ± 0.15. Consider WVSSIGGDWGMIYSLLQLYW, for which the amyloid nucleation score was found to be 0.205 ± 0.46. With TSGLMMSVCKFDLWQNVND the figure was 3.81 ± 0.09. Take RLCRSAPG: the amyloid nucleation score was 1.3 ± 0.44.

DANLQIH yielded an amyloid nucleation score of -0.774 ± 0.45. In turn, RCLSKVLSLL gave an amyloid nucleation score of -1.72 ± 0.54.

RTIQMVTSQSLPCFC came in with an amyloid nucleation score of 6.196 ± 0.042. The result for TLVLFGTLISMLQL reads 6.24 ± 0.073.

In the case of FSVYRETERLGMSFRVRLWM, the amyloid nucleation score stood at 5.25 ± 0.073. The result for IYHYPKRREGVIK reads 0.224 ± 0.56; that for ARFILFVALFWKFLY, 0.431 ± 0.46; that for CRIGA, -0.252 ± 0.28. The result for TDNHFVTRCTYVAFQLTYKV reads -0.375 ± 1.1; that for NCQRVWYCWVALSLCETCID, 5.168 ± 0.047; that for YILSDIIFMGIWGV, 4.1 ± 0.13. With NGISYQRMTGNGFVESNGAS, the amyloid nucleation score amounted to 4.683 ± 0.034.

The substance QSPSL had an amyloid nucleation score of -0.381 ± 0.79.

In the case of GLDITIGEA, the amyloid nucleation score was -0.522 ± 0.63.

As to YTDLG, the amyloid nucleation score was found to be 0.563 ± 0.44.

CIGLHC yielded an amyloid nucleation score of -0.196 ± 1. The result for RIVLLLNVYNTREM reads 5.04 ± 0.1; that for PEILMSDGIRKLCSVYVFLR, “inactive”; that for MGFSRTLYIRKDIFLFVLHL, -0.759 ± 0.64. With GMPFG the figure was 0.044 ± 0.28; with SACNARRVPFG, 0.788 ± 0.51. The result for YDNTEASGLSWRTLLQGAVW reads 0.562 ± 0.45; that for KVSVTMHLAKMDFCRLWG, 7.11 ± 0.046. ENERNML yielded an amyloid nucleation score of -0.11 ± 0.29.

Substance VKHVIAHTRG showed an amyloid nucleation score of 1.52 ± 0.38. The result for LWRSVAKIVSPN reads -1.74 ± 0.78; that for VVTFTDYI, 0.237 ± 1; that for CSLFYRSS, 4.06 ± 0.056. With AYKNYIPVVSVH the figure was -1.37 ± 1.1.

Regarding IDSSGEYIVLRGYMYMRFRL, the amyloid nucleation score was -0.72 ± 0.4.

GTVFCYLM came in with an amyloid nucleation score of -1.05 ± 1.

Substance FTNIGSEYDMTGLNEGSSMP returned an amyloid nucleation score of -0.411 ± 0.29. Consider WGNILW, for which the amyloid nucleation score result was “inactive”.

On to RLLALLGSCYWAGLDVSARI, for which the amyloid nucleation score was 3.36 ± 0.097.

As to NDLSWVRLSYHGLVLLGDVM, the amyloid nucleation score turned out to be 0.193 ± 0.34. With MLFLMGPVWTCFKICNSLLT the figure was 0.333 ± 0.23; with WFMVYYSLFTVNIGISRMDH, 3.52 ± 0.16; with MCVLECFDAGSGYLR, 1.06 ± 0.59. With VLRLRGLRRWI the figure was 0.638 ± 0.23. In turn, VTRKTWFFVLCNQLFTLFAD yielded an amyloid nucleation score of 6.975 ± 0.058. With IVLQSGR the figure was -1.12 ± 0.63; with LYDTNVKWVFSCYSKACSCK, -0.323 ± 0.79. KLSWRIRA showed an amyloid nucleation score of 0.403 ± 0.42.

On to TFRDYQYMYFRSRNII, for which the amyloid nucleation score came to 0.034 ± 1.1. With FLCVYDFVVRNIKGIVLRLH the figure was 0.294 ± 0.8; with STCVGEYLHCSLSCAGMVLL, 6.593 ± 0.049. The result for VNSLYCM reads -0.447 ± 1.1; that for WFWNGLFNIRTVLDMHALCT, 4.11 ± 0.088; that for RSSSRASALTRYLSELGKKS, 0.694 ± 0.39. With KGDQKSTFCVRPFWESPNIV the figure was -0.046 ± 0.74. SQSHNIYQ: the amyloid nucleation score is 3.46 ± 0.14. In turn, FEKEWYSGLCFARAVARGMR registered an amyloid nucleation score of 2.97 ± 0.17.

In turn, YVENTGASCFGAYK registered an amyloid nucleation score of 2.25 ± 0.11. The result for FLGCYGLNCVSWKGMMSTPL reads 4.31 ± 0.072. The result for YSNRVTLMSYDIN reads “inactive”; that for NTSFRGTTTRKSY, -0.233 ± 0.29. With SSSIRVRTDEHMEVAGKRLS the figure was 0.217 ± 0.27; with VVIAKDIMFSGSRINMVGSV, -1.23 ± 1.1; with GKVAAGVIGRYTY, -0.477 ± 0.22. In turn, VRFVINSWLTCVYERNIKLL yielded an amyloid nucleation score of -0.058 ± 0.22.

Substance RIIYEAC registered an amyloid nucleation score of -0.865 ± 0.23. With ENVFDCNRFY the entry was “inactive”; with RFHELCV, 0.998 ± 0.74; with GLDCIVSINRVQLTSAGLIE, 0.382 ± 0.47.

Regarding IFNVKRGILVTSVFDNVQVW, the amyloid nucleation score entry was “inactive”. YKNVFHNCILADSSVYWNTH yielded an amyloid nucleation score of 5.764 ± 0.044. As to WYFPSVKIIENLW, the amyloid nucleation score amounted to 6.035 ± 0.038. With WPLRL the figure was 0.348 ± 0.31; with GFHQFPVDVVALGWSILRCF, -0.075 ± 0.31; with VVVNTYYSGIFMQVFLFL, 6.76 ± 0.037. With CLMDCGLYFTGSNLRAMCTW the figure was -0.223 ± 0.49; with FQDTLDLRRLRYWCYPKLGL, -0.69 ± 0.55; with IEGQGLIVCNGDCTGRPNLR, 1.69 ± 0.39. The result for ESVRASPV reads 0.093 ± 0.28; that for MCMGFRRPLTRTFFRTLCAR, 0.684 ± 0.54. In the case of VISSMFNLIKYGSVWSLRGL, the amyloid nucleation score is -0.706 ± 1.

As to GHMLLFTFFR, the amyloid nucleation score came to 5.965 ± 0.035. The result for LVFDACTPEEVGG reads 0.735 ± 0.27; that for RYYHLCAI, 0.289 ± 0.8; that for LGRWASGTAG, 0.558 ± 0.57. As to HSMQSVPKWKL, the amyloid nucleation score came out at 1.86 ± 0.25. The result for WVVRGWLGV reads 0.23 ± 0.38; that for YGCCGKDFCVGPRGVCAV, 1.05 ± 0.24.

With SDCFMGANDVMNKLEYGLDA, the amyloid nucleation score came to 0.091 ± 0.22. The result for LFAYCMDSHLHTTSKFILTL reads 0.047 ± 0.5; that for YDDKLHRPDDFGCRDHSPGM, 0.495 ± 0.41. The result for ALIRFCTSW reads 0.588 ± 0.16.

Consider SQVSHLRLDVPVAEI, for which the amyloid nucleation score is 4.04 ± 0.078. Regarding PCQCKV, the amyloid nucleation score came out at 4.16 ± 0.072. The substance RCGFNLFTS came in with an amyloid nucleation score of -0.883 ± 0.76. With TRVDDLIR the figure was -0.191 ± 0.32; with GHRNTDRSRREDRTKW, 4.82 ± 0.05.

With KLPIRLMTCASNFNLGNCWL, the amyloid nucleation score is 6.003 ± 0.038. The result for KYGAPS reads -0.029 ± 1.1; that for LVGWSGLLTDALEFLLSKDV, -0.592 ± 0.76; that for FHCVVVYNNRQMCSVTKDSS, 7.962 ± 0.031. The result for SGLVWVTN reads -0.018 ± 1.1. With VDHSMVCWVRCMGC the figure was 0.19 ± 1.1.

Regarding IRWCF, the amyloid nucleation score is 5.34 ± 0.09. The result for NCECMRWDDF reads -0.561 ± 0.38; that for LSVTGDTWRMVSRYSHECKD, 0.859 ± 0.52.

As for TLKYSVVNTLMTSMHDF, the amyloid nucleation score came to 3.56 ± 0.082. The result for YDVSYYCNCIAVLKSRLREL reads 5.203 ± 0.031.

As for QTCLHMSIGWVSP, the amyloid nucleation score came to 4.38 ± 0.082. In turn, QNGRMSTHTDFGGM registered an amyloid nucleation score of 0.39 ± 0.38.

Regarding YRWDHILDVGSSFVL, the amyloid nucleation score stood at 3.61 ± 0.064. On to SFFQESHKRIDRVYKYGMGS, for which the amyloid nucleation score was -0.96 ± 0.28. The result for NGCSYLERVYVVCYDDMAFG reads 0.336 ± 0.5; that for NLNVGALSSKWVW, “inactive”; that for GITYVVHSTRGTYREPEGPW, 0.469 ± 0.65. With RMWFVNNLDDWFLPTCLWDR the entry was “inactive”; with SRLGFMAKPLMDVS, 2.79 ± 0.09; with MIQHICELLG, -0.317 ± 0.32. With REFQWCRSLMRYVRGWLVV the figure was 3.19 ± 0.16. As for LCGHSNTAVWARHPEYSLVS, the amyloid nucleation score result is “inactive”.

KTIRRDVCIVVLSLQSDLNM: the amyloid nucleation score was found to be 5.62 ± 0.069. With INSVFNGIGRVYRHW the figure was -0.554 ± 1. RVASVSYVSVWYEMCQCFRG returned an amyloid nucleation score of 9.503 ± 0.082. Turning to NIWFKFPHVLNS, the amyloid nucleation score is -0.063 ± 0.76. The result for SSKSCVPQVLINILDDSTVN reads -0.632 ± 0.79; that for MSVSLLSDIN, -0.497 ± 1; that for CRVNRGRGNSTTLYMMDFGY, 2.7 ± 0.088.

HRRCMFQNTAMRHRQWDA: the amyloid nucleation score is 0.841 ± 0.44. Consider ILSCRYHNYSQQLVK, for which the amyloid nucleation score result is “inactive”. The result for PDSGVSDESHLRCLPGVPRI reads 0.066 ± 0.28; that for KYMLLCSICIFRNQGKKFRL, 8.384 ± 0.052.

In turn, GLIGSERNSRVWRNYQMSCS gave an amyloid nucleation score of 2.99 ± 0.11. WYNCSALWESLMFNGLQAVW showed an amyloid nucleation score of -0.268 ± 0.48. The result for YYTFFNKRYNRWCMMNLNLT reads “inactive”. With AFEDVDVQS the figure was 0.94 ± 0.32.

Turning to PNALQGSRDVCTLKRLASEA, the amyloid nucleation score came to 0.238 ± 0.57. With VYHSGMTLFNFCCSMHLVEL the figure was 9.22 ± 0.041.

For LVEAFYNVWRRTSAHCETVC, the amyloid nucleation score was -0.272 ± 0.55. With VYEAWRTMQTGMYGVNRVWS the figure was 0.911 ± 0.15; with ACNSRHHEFMSSKFYSATQL, -1.3 ± 0.78. With NLVTYDLE the figure was 3.79 ± 0.052.
